The assay has as its target T1, human angiotensin-converting enzyme 2 (ACE2) (human, UniProt Q9BYF1 18-740).
T1 construct: also called ACE2 receptor; human angiotensin-converting enzyme 2 on a cell surface
The assay is described as follows: protein microarray, ACE2 in solution, Cy3 labeled anti-human IgG detection.

T1 sequence (Q9BYF1 18-740 limits assumed): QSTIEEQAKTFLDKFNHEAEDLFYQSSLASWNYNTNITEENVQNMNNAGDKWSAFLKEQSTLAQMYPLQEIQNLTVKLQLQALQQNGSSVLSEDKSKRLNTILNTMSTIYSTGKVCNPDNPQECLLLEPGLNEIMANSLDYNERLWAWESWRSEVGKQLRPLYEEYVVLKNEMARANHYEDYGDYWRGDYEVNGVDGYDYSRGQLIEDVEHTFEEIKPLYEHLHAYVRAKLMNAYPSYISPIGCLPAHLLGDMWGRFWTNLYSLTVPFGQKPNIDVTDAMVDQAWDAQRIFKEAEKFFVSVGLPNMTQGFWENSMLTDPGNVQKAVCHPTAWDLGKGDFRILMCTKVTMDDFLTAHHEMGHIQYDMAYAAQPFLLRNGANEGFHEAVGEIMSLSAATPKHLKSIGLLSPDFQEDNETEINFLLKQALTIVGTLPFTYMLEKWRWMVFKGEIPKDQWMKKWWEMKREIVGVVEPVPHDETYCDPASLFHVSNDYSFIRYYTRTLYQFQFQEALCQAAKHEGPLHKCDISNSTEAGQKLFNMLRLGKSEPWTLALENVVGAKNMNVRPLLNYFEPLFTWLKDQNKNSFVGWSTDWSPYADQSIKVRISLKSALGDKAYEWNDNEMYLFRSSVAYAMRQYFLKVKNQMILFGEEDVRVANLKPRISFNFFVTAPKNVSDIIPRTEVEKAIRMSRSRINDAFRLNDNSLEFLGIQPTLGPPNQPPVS

B1: spike protein (S protein) of MERS-CoV with His-tag (other)
chain: YVDVGPDSVKSACIEVDIQQTFFDKTWPRPIDVSKADGIIYPQGRTYSNITITYQGLFPYQGDHGDMYVYSAGHATGTTPQKLFVANYSQDVKQFANGFVVRIGAAANSTGTVIISPSTSATIRKIYPAFMLGSSVGNFSDGKMGRFFNHTLVLLPDGCGTLLRAFYCILEPRSGNHCPAGNSYTSFATYHTPATDCSDGNYNRNASLNSFKEYFNLRNCTFMYTYNITEDEILEWFGITQTAQGVHLFSSRYVDLYGGNMFQFATLPVYDTIKYYSIIPHSIRSIQSDRKAWAAFYVYKLQPLTFLLDFSVDGYIRRAIDCGFNDLSQLHCSYESFDVESGVYSVSSFEAKPSGSVVEQAEGVECDFSPLLSGTPPQVYNFKRLVFTNCNYNLTKLLSLFSVNDFTCSQISPAAIASNCYSSLILDYFSYPLSMKSDLSVSSAGPISQFNYKQSFSNPTCLILATVPHNLTTITKPLKYSYINKCSRFLSDDRTEVPQLVNANQYSPCVSIVPSTVWEDGDYYRKQLSPLEGGGWLVASGSTVAMTEQLQMGFGITVQYGTDTNSVCPKLEFANDTKIASQLGNCVEYSLYGVSGRGVFQNCTAVGVRQQRFVYDAYQNLVGYYSDDGNYYCLRACVSVPVSVIYDKETKTHATLFGSVACEHISSTMSQYSRSTRSMLKRRDSTYGPLQTPVGCVLGLVNSSLFVEDCKLPLGQSLCALPDTPSTLTPRSVRSVPGEMRLASIAFNHPIQVDQLNSSYFKLSIPTNFSFGVTQEYIQTTIQKVTVDCKQYVCNGFQKCEQLLREYGQFCSKINQALHGANLRQDDSVRNLFASVKSSQSSPIIPGFGGDFNLTLLEPVSISTGSRSARSAIEDLLFDKVTIADPGYMQGYDDCMQQGPASARDLICAQYVAGYKVLPPLMDVNMEAAYTSSLLGSIAGVGWTAGLSSFAAIPFAQSIFYRLNGVGITQQVLSENQKLIANKFNQALGAMQTGFTTTNEAFHKVQDAVNNNAQALSKLASELSNTFGAISASIGDIIQRLDVLEQDAQIDRLINGRLTTLNAFVAQQLVRSESAALSAQLAKDKVNECVKAQSKRSGFCGQGTHIVSFVVNAPNGLYFMHVGYYPSNHIEVVSAYGLCDAANPTNCIAPVNGYFIKTNNTRIVDEWSYTGSSFYAPEPITSLNTKYVAPQVTYQNISTNLPPPLLGNSTGIDFQDELDEFFKNVSTSIPNFGSLTQINTTLLDLTYEMLSLQQVVKALNESYIDLKELGNYTYYNKWPW
Turning to B1, the binding result was “no binding (tested: 25 ng, 50 ng, 75 ng, 100 ng, and 125 ng)”.
